Reference: the DeepSol protein solubility set

test: soluble on expression in E. coli; label from the status in PepcDB or PDB records

Sequence	soluble on expression in E. coli
MRYIAGIDIGNSSTEVALATLDEAGALTITHSALAETTGIKGTLRNVFGIQEALALVARGAGIAVSDISLIRINEATPVIGDVAMETITETIITESTMIGHNPKTPGGAGLGTGITITPQELLTRPADAPYILVVSSAFDFADIASVINASLRAGYQITGVILQRDDGVLVSNRLEKPLPIVDEVLYIDRIPLGMLAAIEVAVPGKVIETLSNPYGIATVFNLSPEETKNIVPMARALIGNRSAVVVKTPSGDVKARAIPAGNLELLAQGRSVRVDVAAGAEAIMKAVDGCGRLDNVTGESGTNIGGMLEHVRQTMAELTNKPSSEIFIQDLLAVDTSVPVSVTGGLAGEFSLEQAVGIASMVKSDRLQMAMIAREIEQKLNIDVQIGGAEAEAAILGALTTPGTTRPLAILDLGAGSTDASIINPKGDIIATHLAGAGDMVTMIIARELGLEDRYLAEEIKKYPLAKVESLFHLRHEDGSVQFFSTPLPPAVFARVCVVKADELVPLPGDLALEKVRAIRRSAKERVFVTNALRALRQVSPTGNIRDIPFVVLVGGSSLDFEVPQLVTDALAHYRLVAGRGNIRGSEGPRNAVATGLILSWHKEFAHER	soluble
MRYVVGHKNPDTDSIASAIVLAYFLDCYPARLGDINPETEFVLRKFGVMEPELIESAKGKEIILVDHSEKSQSFDDLEEGKLIAIIDHHKVGLTTTEPILYYAKPVGSTATVIAELYFKDAIDLIGGKKKELKPDLAGLLLSAIISDTVLFKSPTTTDLDKEMAKKLAEIAGISNIEEFGMEILKAKSVVGKLKPEEIINMDFKNFDFNGKKVGIGQVEVIDVSEVESKKEDIYKLLEEKLKNEGYDLIVFLITDIMKEGSEALVVGNKEMFEKAFNVKVEGNSVFLEGVMSRKKQVVPPLERAYNG	soluble
MSADTLQIAYSPCPNDTFVFDALAHGRVPGAPALDVTFADIDITNGMAERGELDVLKVSYAVLPYVLDDWALLPCGGALGRGCGPLVLTREADADLRGRTVAVPSETSTAYLLFRLWAADTVPGGVGEIVVMPFHEIMPAVRDGKVDAGLVIHEARFTYQNYGLHKLADMGEHWEHTTGLPIPLGAIIARRSLGAPALTRLADAVRASVRAAWDDPEASRPYVMEHAQEMDPAVADQHIGLYVNEFTADLGEDGYAAIRGLLTRAAAEGLVPALGPDALAFP	not soluble
MSADVVENGRAYNALWWAKVQSGGPQKVPADTPAVAGLARAVEPDGSGLWMLPTVPDGAGHGVLEELGAPPVAVEMPNETARVLAICVACCWTDRDASTWPGVTGTLAQVKAVYAGMRGRAEQSSDLTLIIGSLRRLHATHWLLWNEKAGEVRLGPRTITWSPSDLATLREICRVLPDPPPAVLVARAPEPTPDPLPVAASADGPAPSSDQAAASALPSPAAPPADGAPGPTPDPSPSLTSTSPAPSAPARSTEQSG	not soluble
MSAEEQDTRSGGIQVIARAAELLRVLQAHPGGLSQAEIGERVGMARSTVSRILNALEDEGLVASRGARGPYRLGPEITRMATTVRLGVVTEMHPFLTELSRELDETVDLSILDGDRADVVDQVVPPQRLRAVSAVGESFPLYCCANGKALLAALPPERQARALPSRLAPLTANTITDRAALRDELNRIRVDGVAYDREEQTEGICAVGAVLRGVSVELVAVSVPVPAQRFYGREAELAGALLAWVSKVDAWFNGTEDRK	soluble
MSAEPHIVIIGGGFSGAAVAIELLRLAPNGVRVTLLEPRQSPGAGVAYSTAEPTHRINVPAARMQLAGDEEGAFDHWYRHQPAFAVDVQALRPDGSVYPQRGQFGRYVAQRFADAAASSGGRLRHLRDRALAFHQGTVTTDGGLQFKADLLVLAISHPPPSLPPQAEAWRHHPALIANPWQPGALDAIAPHARVAVMGTGLTMADTVVTLDRLGH	not soluble
MSAGKTGNHLMISDSKLLASAAWDAQSLNELKAKAGEDPAANIRPVARQVEGMFVQMMLKSMRDALPKDGLFSSEHTRLYTSMYDQQIAQQMTAGKGLGLAEMMVKQMTPEQPLPEEPTPAAPMKFPLETVVRYQNQALSQLVQKAVPRNYDDSLPGNSKAFLAQLSLPAQLASQQSGVPHHLILAQAALESGWGQRQIRRENGEPSYNLFGVKASGNWKGPVTEITTTEYENGEAKKVKAKFRVYSSYLEALSDYVGLLTRNPRYAAVTTAASAEQGAQALQDAGYATDPHYARKLTNMIQQMKSISDKVSKTYSMNIDNLF	soluble
MSAIEVTNLVKKFHGQTVLHGIDLEVKPGEVVAIIGPSGSGKTTLLRCINLLEQPEAGTIKVGDIIIDTARPFSQQKGLIRQLRQHVGFVFQSFNLFPHRTVLENIIEGPVIVKGEPKAEATALARELLAKVGLAGKESRYPRRLSGGQQQRVAIARALAMRPEVILFDEPTSALDPELVGEVLNTIRQLAQEKRTMVIVTHEMSFARDVADRAIFMDQGQIVEQGPAKTLFADPQHPRTRQFLEKFLVK	not soluble
MSAISPFVAIRRDLHQIPELGFQELKTQQYLLRYIQSLPQERLQVRTWKTGIFVKVNGTSPRKTIGYRADMDGLPIREETGLPYRSKHEGHMHACGHDVHMSIALGVLTHFAHHPLEDDLLFVFQPAEEGPGGAKPMLESDIMREWKPDMIVALHIAPEYPVGTIATKEGLLFANTSELFIDLKGRGGHAAFPHLANDMVVAACALVTQLQSIVARNVDPLDSAVITIGKIAGGTVQNVIAEHARLEGTIRTLSTAAMQKVKRRIEAIVHGIEVAYECETSIDYGAMYHEVYNDPDLTAEFMKFAKAHGGVNVIRCKEAMTGEDFGYMLAEIPGFMFWLGVDSPYGLHHAKLAPNEEAIDRAIAFLIDYFSWKGNAE	not soluble
MSAKFQQETLKSRFAQAKVLVVGDVMLDRYWFGDVSRISPEAPVPVAKIGRIDQRAGGAANVARNIASLGGRAGLLSVTGNDEAADALDALMVQDGVASYLMRDKQIATTVKLRVVARNQQLIRLDFEEHPNCEVLEQIKQKYREILPEYDAIIFSDYGKGGLSHISDMIDWAKHAGKTVLIDPKGDDYEKYVGATLITPNRAELKEVVGSWKNESELTEKAQNLRRHLDLTAVLLTRSEEGMTLFSEGEPIYQPTRAQEVYDVSGAGDTVIAGMGLGLAAGCTMPEAMYLANTAAGVVVAKLGTAVCSFAELIKALSGQSTM	not soluble
MSALEWYAHKSLGDGIFWIQERFYESGNRANIWLVRGSEQDVVIDTGLGLRSLPEYLYSSGLLQDREAKEDAARRPLLAVATHVHFDHSGGLYQFDRVAVHHAEAEALARGDNFETVTWLSDSEVVRAPSPGWRARQFRVQAVQPTLILQDGDVINLGDRQLTVMHMPGHSRGSICLHDKDRKILFSGDVVYDGSLIDWLPYSRISDYVGTCERLIELVDRGLVEKVLPGHFNTFGAERLFRLASNYISKAGICHKVSTFAMRSLASLALRVTNSRTSP	not soluble
MSALKWTNIGATSGAKSCQRWLFYAYDRIRRTVVPHVFGERTLATLERLLSLLSAFEVVVWMTDGWPLYESRLKGKLHVISKRYTQRIERHNLNLRQHLARLGRKLLSFSKSVELHDKVIGHYLNIKHYQLEHHHHHH	not soluble
MSALTLKGTSYKMCTDKMSFVKNPTDTGHGTVVMQVKVPKGAPCKIPVIVADDLTAAINKGILVTVNPIASTNDDEVLIEVNPPFGDSYIIVGTGDSRLTYQWHKEGSSIGK	soluble
MSAQDFLVELGTEELPPKALASLGDAFLAGIEKGLQAAGLNYTGKQVYAAPRRLAVLIRQLDVQQPDRSINIDGPPLQAAFNAEGEPTQAALGFAKKCGVELAEIDQSGPKLRFSQHIPGKATVGLLPTIVEDSLNDLPIPKRMRWAASREEFVRPTQWLVMLLGDQVVDCTILSQKAGRESRGHRFHHPENVLITTPANYVEDLRKAYVLADFAERRELISKRTAELAMQQEGTAIVPPALLDEVTALVEWPVPLVCSFEERFLEVPQEALITTMQDNQKYFCLLDSEGKLLPRFITVANVESRDPKQIVQGNEKVVRPRLTDAEFFFKQDKKQPLETFNERLKNVVFQAQLGTVYDKAERVSRLAAFIAPLIGGDAQRAGRAGLLSKCDLATEMVGEFPEMQGVAGYYYALNDGEPEDVALALNEQYMPRGAGAELPQTLTGAAVAIADKLDTLVGIFGIGMLPTGSKDPYALRRAALGVLRILIEKQLDLDLTGAVEFAVKQFGAKIKAPGLAEQVLEFIFDRLRARYEDEGIDVATYLSVRALQ	not soluble
MSAQVSLELHHRISQFLFHEASLLDDWKFRDWLAQLDEEIRYTMRTTVNAQTRDRRKGVQPPTTWIFNDTKDQLERRIARLETGMAWAEEPPSRTRHLISNCQISETDIPNVFAVRVNYLLYRAQKERDETFYVGTRFDKVRRLEDDNWRLLERDIVLDQAVITSHNLSVLF	soluble
MSASPLQITEKSPEMSQTPPKDENNELEFGIPTKRSRSGRPKKICAFSSFKCYEERDIEFFIHQVSDNQIIWDRRNSLNFDGNLVHATFDKIEICCQFLARKNGENASRLWTELASEYKREKARIEQLPSGIYSEEFEIRFPFMQQMWFLEIEASELKEADSNSLEETIVNFARQKSINDAPSPSSSLSAPIEHLNSSINRLIAVIDKKSEDTTKRQIPAKYSDIVEHLIGFLDKTPRERQMEVKCKIYNFLDTIN	not soluble
MSAVALPRVSGGHDEHGHLEEFRTDPIGLMQRVRDELGDVGTFQLAGKQVVLLSGSHANEFFFRAGDDDLDQAKAYPFMTPIFGEAVVFDASPERRKEMLHNAALRGEQMKGHAATIEDQVRRMIADWGEAGEIDLLDFFAELTIYTSSACLIGKKFRDQLDGRFAKLYHELERGTDPLAYVDPYLPIESFRRRDEARNGLVALVADIMNGRIANPPTDKSDRDMLDVLIAVKAETGTPRFSADEITGMFISMMFAGHHTSSGTASWTLIELMRHRDAYAAVIDELDELYGDGRSVSFHALRQIPQLENVLKETLRLHPPLIILMRVAKGEFEVQGHRIHEGDLVAASPAISNRIPEDFPDPHDFVPARYEQPRQEDLLNRWTWIPFGAGRHRCVGAAFAIMQIKAIFSVLLREYEFEMAQPPESYRNDHSKMVVQLAQPAAVRYRRRTGVHHHH	soluble
MSCEIVVYPAQDSTTTNIQDISIKNYFKKYGEISHFEAFNDPNSALPLHVYLIKYASSDGKINDAAKAAFSAVRKHESSGCFIMGFKFEVILNKHSILNNIISKFVEINVKKLQKLQENLKKAKEKEAENHHHHHH	soluble
MSCKPNILVLFYGYGSIVELAKEIGKGAEEAGAEVKIRRVRETLPPEFQSRIPFDKVKDIPEVTLDDMRWADGFAIGSPTRYGNMAGGLKTFLDTTAILWKDNVLYGKPVTFFTEASTVHGGHETTILTMSTYAYHFGMIIVPIGYGIPELFQTTTGGGPYGATHLGSKEELDEMERKIARFQGKRITEVAKAIKCCNK	soluble
MSCYYYCKYCKEYKNKHHDCCKNTSKCHDNKDNLVRASAFRARNTVNQNVPANTFVKVLFQNEQFDLANEYNPATSIFMPKTKGVYSIIGTIGFFPNDPTLNYRARVEIRVNGNAAIAIDNDFFGPISFGNVVSVSTIVQLNAGDEVEIYAQSSIDGVLSPLEDGAHFEAARFPSPIKLEHHHHHH	not soluble
MSDAIVVGAGPNGLAAAVALARRGLKVTVLEAADEIGGGTRTSELTVPGLLHDHCSAVHPLGVGSPFLRTLGLERYGVTWAWPDVDLAHPLDGGRAGVLVRSMERTVRGLGPDGPAWERLFAPLAEDFDALTEDLLRPVPHLPAHPVELARFGLRALQPATTVARRWRGAEARALFAGAAAHLMHPLTGPTSSAVGLMLVGAAHRFGWPVARGGSRTITDALAALLAQLGGTIETGVRVDSLDQLAAARIVMLDTAPGAAARICGDRLPGRVRSAYEGWRHGPAAFKVDLAVQDGIPWTHEACRRAGTVHLGGTLEEVVRTEAQTAGGRMPERPFVLVGQQYLADPSRSRGDVHPIWAYAHVPHGYPGDATEAVLRQIERFAPGFRDRIVGIAARSTAELARSNTNFVGGDIVGGANTARQVALRPRVALDPYSTGIPGVYLCSAATPPGAGVHGMCGANAARSALRYLDRLEHHHHHH	not soluble
